Test results as given in patent US20150210761A1 (SAMSUNG ELECTRONICS, published 2015).
Substitutions are numbered along the chain they refer to. Values belong to the binder of their own block, whether it stands above or below them.

Key:
[1] = target: Ang2 RBD mutant A449 (human) (UniProt O15123); experiment: ELISA; antibody coated, FLAG-tagged RBD mutant, anti-FLAG-HRP detection
Ang2 RBD mutant D448 = target: T1, Ang2 RBD mutant D448 (human, UniProt O15123 276-496); experiment: as above
T1 chain: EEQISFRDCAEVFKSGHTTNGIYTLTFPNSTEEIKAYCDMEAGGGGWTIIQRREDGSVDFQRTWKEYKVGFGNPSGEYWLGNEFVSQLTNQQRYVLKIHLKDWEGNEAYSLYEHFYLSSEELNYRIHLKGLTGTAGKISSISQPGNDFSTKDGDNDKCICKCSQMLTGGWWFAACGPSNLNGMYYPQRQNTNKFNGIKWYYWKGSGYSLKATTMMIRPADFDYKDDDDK

Ang2 RBD mutant Y460 = target: T2, Ang2 RBD mutant Y460 (human, UniProt O15123 276-496); experiment: as above
T2 chain: T1 chain with A173D, Y185A

Ang2 RBD mutant P452 = target: T3, Ang2 RBD mutant P452 (human, UniProt O15123 276-496); experiment: as above
T3 chain: T1 chain with A173D, P177A

Ang2 RBD mutant F469 = target: T4, Ang2 RBD mutant F469 (human, UniProt O15123 276-496); experiment: as above
T4 chain: T1 chain with A173D, F194A

Ang2 RBD mutant N467 = target: T5, Ang2 RBD mutant N467 (human, UniProt O15123 276-496); experiment: as above
T5 chain: T1 chain with A173D, N192A

[2] = target: T6, Ang2 mutant K468 (full-length Ang2) (human, UniProt O15123 19-496, limits assumed); experiment: ELISA; antibody coated, FLAG-tagged full-length Ang2 mutant, anti-FLAG-HRP detection
T6 sequence: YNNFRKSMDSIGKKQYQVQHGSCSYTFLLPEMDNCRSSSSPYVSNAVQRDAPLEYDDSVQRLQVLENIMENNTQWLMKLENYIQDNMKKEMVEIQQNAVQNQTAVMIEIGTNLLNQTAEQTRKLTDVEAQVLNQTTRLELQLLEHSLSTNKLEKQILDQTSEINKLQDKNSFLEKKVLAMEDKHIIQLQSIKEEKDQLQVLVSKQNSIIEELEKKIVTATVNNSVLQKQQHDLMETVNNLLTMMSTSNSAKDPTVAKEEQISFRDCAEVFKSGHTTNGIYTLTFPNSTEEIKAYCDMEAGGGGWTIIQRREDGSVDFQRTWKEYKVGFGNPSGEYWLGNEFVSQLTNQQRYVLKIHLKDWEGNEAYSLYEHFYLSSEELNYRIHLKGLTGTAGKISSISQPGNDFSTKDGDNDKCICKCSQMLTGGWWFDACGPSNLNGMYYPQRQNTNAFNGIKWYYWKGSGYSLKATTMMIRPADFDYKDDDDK
Method: A 96-well MaxiSorp™ flat-bottom plate (Nunc) was coated with 50 μl of each anti-Ang2 antibody (400 nM). After that, the plate was washed five times with 0.05% (v/v) Tween-20-containing PBS (PBST) and then blocked with 1% (v/v) BSA-containing PBS at a room temperature for 2 hours. S417, P419, N421, I434, D448, A449, P452, Y460, N467, K468, or F469 residue of Ang2 (SEQ ID NO: 27) was mutated (substituted) with alanine and tagged with FLAG (N-[…]-C; 1012 Da) and then 250 ng of them was each added to each well to the plate, which was allowed to react at a room temperature for 2 hours.
Thereafter, the plate was washed five times with 0.05% (v/v) Tween-20-containing PBS and then, an HRP-conjugated anti-FLAG antibody (SIGMA) diluted in 1% (v/v) BSA-containing PBS at 1:5,000 ratio (v/v) was added in the amount of 50 μl to each well to react at a room temperature for 1 hour, followed by washing five times with 0.1% (v/v) Tween-20-containing PBS.
Finally, 100 μl of TMB substrate (cell signal) was added to each well of the plate to induce color development for 3 minutes and then, the reaction was ceased by the addition of 100 μl of stop solution (Cell signaling) and OD450 values were measured on a plate reader (Molecular Devices). By comparing binding intensity to mutated Ang2 to binding intensity to non-mutated (native) Ang2, each epitope for the Ang2 antibodies was identified.

Binding (%) (mutant Ang2 / native Ang2) [1]: 95.6%
Binding (%) (mutant Ang2 / native Ang2) (Ang2 RBD mutant D448): 95.3%
Binding (%) (mutant Ang2 / native Ang2) (Ang2 RBD mutant Y460): 8.3%
Binding (%) (mutant Ang2 / native Ang2) (Ang2 RBD mutant P452): 105%
Binding (%) (mutant Ang2 / native Ang2) (Ang2 RBD mutant F469): 77.9%
Binding (%) (mutant Ang2 / native Ang2) (Ang2 RBD mutant N467): 79.4%
B1: SAIT-ANG2-AB-m1A10 (antibody, V domains shown)
VH: QVQLQQSGAELMKPGASVKISCKATDYTFSSYWLEWLIQRPGHGLEWIGEILPGSGSTNYNEKFRGKATFTEDTSSNTAYMQLSSLTSEDSAVYYCARGNHNSYYYAMDYWGQGTSVTVSS
VL: DIVLTQSPASLAVSLGQRATISCRASESVDSYGNSFMHWYQQKPGQPPKLLIYRASNLDSGIPARFSGSGSRTDFTLTINPVEADDVATYYCQQSNEDPLTFGAGTKLELK
notes: also called hybridoma KCLRF-BP-00306

Binding (%) (mutant Ang2 / native Ang2) [2]: 20.5%
B2: SAIT-ANG2-AB-m8D3 (antibody, V domains shown)
VH: EVQLQQSGPELVKPGDSVKMSCKASGYTFTDYYMKWVRQSHGKSLQWVGEINPKNGDTFYNQIFKGKATLTVDKSSSTAYMQLTSLTSEDSAVYYCTRENDYDVGFFDYWGQGTSVTVSS
VL: TIVMTQTPKFLLVSAGDRITITCKASQSVSNDVAWYQQKPGQSPKLLIYYASNRYPGVPDRFTGSGYGTDFTFTISTVQAEDLAVYFCQQDYTSPWTFGGGTELEIK
notes: also called hybridoma KCLRF-BP-00308
